Source: US20230406922A1 (SIMCERE ZAIMING PHARMACEUTICAL, published 2023)

T1: monkey CD19, full length, on HEK293T cells (monkey, UniProt P15391 20-556 (human entry))
T1 construct: The entry holds the signal peptide; also called HEK293T-monkey CD19
T1 chain: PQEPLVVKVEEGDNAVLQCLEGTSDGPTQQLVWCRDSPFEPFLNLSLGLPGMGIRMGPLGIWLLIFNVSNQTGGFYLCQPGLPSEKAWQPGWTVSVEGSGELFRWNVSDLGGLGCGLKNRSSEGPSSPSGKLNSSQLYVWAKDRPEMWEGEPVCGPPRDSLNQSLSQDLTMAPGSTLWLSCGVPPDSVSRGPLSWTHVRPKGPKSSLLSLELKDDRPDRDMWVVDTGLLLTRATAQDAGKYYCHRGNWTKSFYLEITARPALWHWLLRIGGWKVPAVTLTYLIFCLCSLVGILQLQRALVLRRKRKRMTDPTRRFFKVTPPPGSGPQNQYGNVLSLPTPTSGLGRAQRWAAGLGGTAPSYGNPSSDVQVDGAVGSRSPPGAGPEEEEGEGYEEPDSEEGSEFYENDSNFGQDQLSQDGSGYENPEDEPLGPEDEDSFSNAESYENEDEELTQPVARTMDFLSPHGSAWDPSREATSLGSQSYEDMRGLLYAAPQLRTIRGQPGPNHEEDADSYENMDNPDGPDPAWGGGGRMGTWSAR

T2: cynomolgus monkey CD19 on peripheral blood B cells (cynomolgus monkey (Macaca fascicularis), UniProt A0A2K5W8L9 20-557)
T2 construct: whole, on cells; also called cynomolgus monkey B cells
T2 sequence: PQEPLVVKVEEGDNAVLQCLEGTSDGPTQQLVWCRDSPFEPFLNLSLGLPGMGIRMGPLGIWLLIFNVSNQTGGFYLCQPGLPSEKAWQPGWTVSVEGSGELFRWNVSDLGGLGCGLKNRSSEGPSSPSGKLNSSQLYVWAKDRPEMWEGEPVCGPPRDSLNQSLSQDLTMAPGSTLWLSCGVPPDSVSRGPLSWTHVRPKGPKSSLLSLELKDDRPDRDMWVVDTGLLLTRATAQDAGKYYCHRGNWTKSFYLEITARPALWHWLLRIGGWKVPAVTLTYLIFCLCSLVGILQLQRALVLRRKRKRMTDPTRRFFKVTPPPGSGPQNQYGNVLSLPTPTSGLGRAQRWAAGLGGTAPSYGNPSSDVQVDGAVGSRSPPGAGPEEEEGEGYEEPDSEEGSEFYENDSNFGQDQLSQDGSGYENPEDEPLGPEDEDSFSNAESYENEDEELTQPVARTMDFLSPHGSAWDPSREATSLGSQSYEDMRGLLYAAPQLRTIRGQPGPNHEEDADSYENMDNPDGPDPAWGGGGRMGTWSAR


Legend:
[1] = molecular target: T1, monkey CD19, full length, on HEK293T …; test: FACS on HEK293T-monkey CD19 cells
Procedure: (§1) For suspension cells Raji, the medium supernatant was discarded by direct centrifugation, and the cell pellet was washed twice with PBS. After cell counting of the cells obtained in the last step, the cell pellet was resuspended to 2×10⁶ cells/mL with a blocking solution [PBS+2% (w/w) BSA] and added into a 96-well FACS reaction plate at 50 μL/well. […] After the plate was centrifuged and washed 5 times with a PBS buffer, the results were assayed and analyzed by FACS (FACS Canto™, purchased from BD Biosciences). Data analysis was performed by software (CellQuest) to obtain the mean fluorescence intensity (MFI) of the cells. Then, analysis was performed by software (GraphPad Prism8), data were fitted, and EC₅₀ values were calculated.
(§2) HEK293T-monkey CD19 cells were subjected to the FACS assay and data analysis according to the method described in Example 4.2.

[2] = molecular target: T2, cynomolgus monkey CD19 on peripheral …; test: FACS on cynomolgus monkey PBMC, gated on CD20-positive B cells
Procedure: Monkey peripheral blood mononuclear cells were extracted from fresh cynomolgus monkey peripheral blood (purchased from Shanghai Medicilon Inc.) according to Ficoll-Paque Plus (purchased from GE Healthcare, Cat. No. 171440-02). […] The cells were incubated at room temperature for 1 h. […] The cells were incubated at room temperature for 30 min in the dark, washed 5 times, gently resuspended in PBS, and assayed and analyzed by FACS (FACS Canto™, purchased from BD Biosciences), in which CD20 was used as a marker for B cells.

[3] = molecular target: T1, monkey CD19, full length, on HEK293T …; test: FACS titration on HEK293T-monkey CD19 cells
Procedure: as §1, §2

Binder | EC50 [1] [nM] | maximum mean fluorescence intensity [1] [MFI] | proportion of positive cells to B cells (%) at 1 nM [2] [%] | proportion of positive cells to B cells (%) at 10 nM [2] [%] | proportion of positive cells to B cells (%) at 100 nM [2] [%] | EC50 (read off the curve) [3] [nM]
FMC63.26-mIgG1 (antibody, V domains shown, Humanized FMC63; also called FMC63-L2H6) VH: EVTLKESGPVLVKPTETLTLTCTVSGFSLPDYGVSWIRQPPGKALEWLAVIWGSETTYYNSALKSRLTISKDTSKSQVVLTMTNMDPVDTATYYCAKHYYYGGSYAMDYWGQGTTVTVSS VL: DIQMTQSPSSLSASVGDRVTITCRASQDISKYLNWYQQKPGGAVKLLIYHTSRLHSGVPSRFSGSGSGTDYTLTISSLQPEDFATYYCQQGNTLPYTFGGGTKVEIKR | 20.3 | 38500 | 3 | 6 | 39 | 
FMC63.25-mIgG1 (antibody, V domains shown, Humanized FMC63; also called FMC63-L2H5) VH: EVTLKESGPVLVKPTETLTLTCTVSGFSLSDYGVSWIRQPPGKALEWLAVIWGSETTYYNSALKSRLTISKDTSKSQVVLTMTNMDPVDTATYYCAKHYYYGGSYAMDYWGQGTTVTVSS VL: DIQMTQSPSSLSASVGDRVTITCRASQDISKYLNWYQQKPGGAVKLLIYHTSRLHSGVPSRFSGSGSGTDYTLTISSLQPEDFATYYCQQGNTLPYTFGGGTKVEIKR | 1.52 | 34700 | 4 | 10 | 60 | ~0.2
